Measured values published in patent publication US20210054016, “Enzymatic RNA Capping Method” (NEW ENGLAND BIOLABS, INC., published 2021).

Target: Vaccinia capping enzyme (VCE) (Vaccinia virus, UniProt P04298;P04318 P04298:1-844,P04318:1-287)
Assay: Cap50, 37 C, 30 min, 500 nM RNA, 1 mM MgCl2; 0.94 at 45 C, 4.08 at 50 C, 30.00 at 55 C

B1: RNA1 (ssRNA)
RNA: GUAGAACUUCGUCGAGUACGCUCAA
modifications: 5' triphosphate
  EC50: 3.06 nM
